Residue numbers refer to the chain shown, from its start.

Test [1] has as its target human prominin-1 expressed in E. coli as a 6*HIS fusion protein (human) (UniProt O43490). The test is described as follows: phage ELISA on plate-coated human prominin-1, HRP-conjugated anti-M13. In general terms: An ELISA detects its analyte on a solid surface through an enzyme-linked reagent.
Test [2] shares this target. The test is described as follows: ELISA on plate-coated human prominin-1, hybridoma secreted antibody diluted at 1:2000.

B1: scFv clone No. 5, displayed on phage (scFv)
scFv: AQAAELDIVLTQSPAIMSASPGEKVTISCSASSSVSYMYWYQQKPGSSPKPWIYRTSNLASGVPARFSGSGSGTSYSLTISSMEAEDAATYYCQQYHSYPPTFGAGTKLELKSSGGGGSGGGGGGSSRSSLEVKLVESGPELKKPGETVKISCKASGYTFTDYSMHWVNQAPGKGLKWMGWINTETGEPSYADDFKGRFAFSLETSASTAYLQINNLKNEDTATYFCATDYGDYFDYWGQGTTLTVSSAKTTPPSVTSGQAGQ
In test [1], B1 came in with an A450 of 1.3 A450.

B2: scFv clone No. 6, displayed on phage (scFv)
scFv: B1 scFv with T56P, L131P, K134M
Take B2: in test [1], the A450 stood at 1.3 A450.

B3: scFv clone No. 8, displayed on phage (scFv)
scFv: B1 scFv with T56P, K134H
In test [1], B3 came in with an A450 of 1 A450.

B4: scFv clone No. 10, displayed on phage (scFv)
scFv: B1 scFv with T11S, S48P, Y231C
As to B4, in test [1], the A450 stood at 1.2 A450.

B5: scFv clone No. 11, displayed on phage (scFv)
scFv: B1 scFv with T11S
Turning to B5, the A450 in test [1] is 1.4 A450.

B6: scFv clone No. 23, displayed on phage (scFv)
scFv: B1 scFv with T56P, K134Q, P253A
In test [1], B6 had an A450 of 1.1 A450.

B7: scFv clone No. 22, displayed on phage (scFv)
scFv: B1 scFv with T56P, G116D, P253A
For B7, the A450 in test [1] is 1.2 A450.

B8: scFv clone No. 4, displayed on phage (scFv)
scFv: AQAAELDIVLTQSPAIMSASPGEKVTISCSASSSVGYMYWYQQKPGSSPKPWIYRPSNLASGVPARFSGSGSGTSYSLTISSMEAEDAATYYCQQYHSYPPTFGAGTKLELKSSGGGGSGGGGGGSSRSSLEVKLVESGPELKKPGETVKISCKASGYTFTDYSMHWVNQAPGKGLKWMGWINTETGEPSYADDFKGRFAFSLETSASTAYLQINNLKNEDTATYFCATDYGDYFDYWGQGTTLTVSSAKTTPPSVTSGQ
In turn, B8 came in with an A450 in test [1] of 1 A450.

B9: scFv clone No. 7, displayed on phage (scFv)
scFv: AQAAELDIVLTQSPAIMSASPGEKVTISCSASSSVSYMYWYQQKPGQPPRLLIYLVSNLESGVPARFSGSGSGTDFTLNIHPVEEEDAATYYCQQYHSYPPTFGAGTKLEIKSSGGGGSGGGGGGSSRSSLEVKLVESGPELKKPGETVKISCKASGYTFTDYSMHWVNQAPGKGLKWMGWINTETGEPSYADDFKGRFAFSLETSASTAYLQINNLKNEDTATYFCATDYGDYFDYWGQGTTLTVSSAKTTPPSVTSGQAGQ
Regarding B9, in test [1], the A450 amounted to 0.9 A450.

B10: monoclonal antibody produced by Hybridoma Clone 7 (antibody, V domains shown)
VH: EVKLVESGPELKKPGETVKISCKASGYTFTDYSMHWVNQAPGKGLKWMGWINTETGEPSYADDFKGRFAFSLETSASTAYLQINNLKNEDTATYFCATDYGDYFDYWGQGTTLTVSS
VL: DIVLSQSPAIMSASPGEKVTISCSASSSVSYMYWYQQKPGSSPKPWIYRTSNLASGVPARFSGSGSGTSYSLTISSMEAEDAATYYCQQYHSYPPTFGAGTKLELK
Consider B10, for which the A450 in test [2] worked out at 1.9 A450.

The values are drawn from patent US20130224202A1.
